Reference: patent US20130058955A1 (Genentech, published 2013)
Changes are numbered by the printed parent chain. Numbers in names are those of the source. Where “and” joins values, the source holds several entries; their conditions need not be identical. Equal values may be shown once.

B1: 1F11/2H5/3F5 triple mutant IgG (antibody, name in Kabat numbering, V domains shown)
VH: EVQLVESGGGLVQPGGSLRLSCAASGFTFSNTYISWVRQAPGKGLEWVASITPSSGQTDYADSVKGRFTISADTSKNTAYLQMNSLRAEDTAVYYCARTWLLRWVMDYWGQGTLVTVSS
VL: DIQMTQSPSSLSASVGDRVTITCRASQDVSTAVAWYQQKPGKAPKLLIYSAKFLYSGVPSRFSGSGSGTDFTLTISSLQPEDFATYYCQQSYTNPPTFGQGTKVEIK
notes: human kappa IgG1
B2: 1F11/2C11/3F5 triple mutant IgG (antibody, name in Kabat numbering, V domains shown)
VH: B1 VH
VL: B1 VL with N94Q
notes: human kappa IgG1
B3: 2H5/3F5 IgG (antibody, name in Kabat numbering, V domains shown)
VH: B1 VH
VL: B1 VL with K52S
B4: 2C11/3F5 IgG (antibody, name in Kabat numbering, V domains shown)
VH: B1 VH
VL: B1 VL with K52S, N94Q
B5: 2C11 IgG (antibody, name in Kabat numbering, V domains shown)
VH: B1 VH with Q57S
VL: B1 VL with K52S, N94Q
B6: 2H5 IgG (antibody, name in Kabat numbering, V domains shown)
VH: B1 VH with Q57S
VL: B1 VL with K52S
B7: 3F5 IgG (antibody, V domains shown)
VH: B1 VH
VL: B1 VL with K52S, N94T
B8: 1F11/3F5 IgG (antibody, V domains shown)
VH: B1 VH
VL: B1 VL with N94T
notes: also called double mutant 1F11/3F5
B9: 3F5, Fab displayed on phage (Fab, V domains shown)
VH: B1 VH
VL: B1 VL with K52S, N94T
notes: Monovalent Fab on M13 phage
B10: 2H5, Fab displayed on phage (Fab, name in Kabat numbering, V domains shown)
VH: B1 VH with Q57S
VL: B1 VL with K52S
notes: Light chain mutant of 1E3 (CDR L3); Monovalent Fab on M13 phage
B11: 1F11/3E4 double mutant, Fab displayed on phage (Fab, name in Kabat numbering, V domains shown)
VH: B1 VH with I34M, Q57S
VL: B1 VL with N94T
B12: 1F11, Fab displayed on phage (Fab, V domains shown)
VH: B1 VH with Q57S
VL: B1 VL with N94T
notes: Monovalent Fab on M13 phage
B13: 2H5/4G7 double mutant, Fab displayed on phage (Fab, name in Kabat numbering, V domains shown)
VH: B1 VH with Q57S, Y108G
VL: B1 VL with K52S
B14: 1F11/4G7 double mutant, Fab displayed on phage (Fab, name in Kabat numbering, V domains shown)
VH: B1 VH with Q57S, Y108G
VL: B1 VL with N94T
B15: 2C11/3E4 double mutant, Fab displayed on phage (Fab, name in Kabat numbering, V domains shown)
VH: B1 VH with I34M, Q57S
VL: B1 VL with K52S, N94Q
B16: 4G7, Fab displayed on phage (Fab, name in Kabat numbering, V domains shown)
VH: B1 VH with Q57S, Y108G
VL: B1 VL with K52S, N94T
notes: Heavy chain mutant of 1E3 (H3); Monovalent Fab on M13 phage
B17: 2H5/3E4 double mutant, Fab displayed on phage (Fab, name in Kabat numbering, V domains shown)
VH: B1 VH with I34M, Q57S
VL: B1 VL with K52S
B18: 3E4, Fab displayed on phage (Fab, name in Kabat numbering, V domains shown)
VH: B1 VH with I34M, Q57S
VL: B1 VL with K52S, N94T
notes: Heavy chain mutant of 1E3 (CDR H1); Monovalent Fab on M13 phage
B19: 2C11/4G7 double mutant, Fab displayed on phage (Fab, name in Kabat numbering, V domains shown)
VH: B1 VH with Q57S, Y108G
VL: B1 VL with K52S, N94Q
B20: 2C11, Fab displayed on phage (Fab, name in Kabat numbering, V domains shown)
VH: B1 VH with Q57S
VL: B1 VL with K52S, N94Q
notes: as for B10
B21: 1E3 IgG (antibody, V domains shown)
VH: B1 VH with Q57S
VL: B1 VL with K52S, N94T
notes: also called parental 1E3
B22: 1F11 IgG (antibody, V domains shown)
VH: B1 VH with Q57S
VL: B1 VL with N94T
B23: 1F11/Y102L IgG (antibody, V domains shown)
VH: B1 VH with Q57S, Y108L
VL: B1 VL with N94T
notes: human kappa IgG1
B24: Y102L IgG (antibody, V domains shown)
VH: B1 VH with Q57S, Y108L
VL: B1 VL with K52S, N94T
notes: human kappa IgG1; also called Y012L

These binders were tested against T1, K63-linked diubiquitin (Boston Biochem) (human, UniProt P0CG48 1-76, isopeptide bond between the C-terminus of one ubiquitin and Lys63 of the other) (assay: western blot, 1 ug/mL IgG, LI-COR Odyssey).
T1 construct: Bought product; also called K63 diUb

Binder	binding result
B1	no binding (tested: 1000 ng per lane)
B2	no binding (tested: 1000 ng per lane)
B3	no binding (tested: 1000 ng per lane)
B4	no binding (tested: 1000 ng per lane)

Target: T1, K63-linked diubiquitin (Boston Biochem)
Assay: western blot, 1 ug/mL IgG, LI-COR Odyssey
Remark: another data set of the same source
Method: (§1) Gels were transferred at 30 V constant for 1 hour by wet transfer in 10% methanol and 1× NuPAGE transfer buffer (Invitrogen) to 0.2 μm nitrocellulose (Invitrogen). Non-specific binding sites on the membranes were blocked by incubation in 5% milk in PBST for 1 hour at 25° C. with shaking. […] The membranes were washed three times in PBST with shaking. The IgGs were detected by incubating the membrane in a 1:10,000 dilution of a goat anti-human Fc fragment-specific IR Dye 800CW-conjugated secondary antibody (Rockland Immunochemicals) in 5% milk in PBST for 30 minutes at 25° C. with shaking. The membranes were then washed three times in PBST followed by one wash in PBS. The secondary antibody was detected and quantified using the L1-COR Odyssey infrared imaging system (L1-COR Biosciences).

Binder	binding result
B5	no binding (tested: 1000 ng per lane)
B6	no binding (tested: 1000 ng per lane)
B7	no binding (tested: 1000 ng per lane)
B8	no binding (tested: 1000 ng per lane)

These binders were tested against T2, linear diubiquitin (Boston Biochem) (human, UniProt P0CG48 1-152) (assay: phage IC50 competition ELISA with soluble linear diubiquitin).
T2 construct: Bought product
Method: An initial titer ELISA was done to determine the amount of phage at which a signal of OD₄₅₀=0.5 would be achieved. […] The coated plates were blocked with 200 μL/well of 2.5% milk in PBST for one hour at 25° C. with shaking. Twelve two-fold serial dilutions of the phage were made in 2.5% milk in PBST from OD₂₆₈=4.0 to OD₂₆₈=0.002. After one hour, the blocking buffer was dumped off of the plate and 100 μL/well of each phage dilution was added and incubated at 25° C. for 15 minutes with shaking. The plate was then washed six times with PBST using a plate washer. A 1:5000 dilution of an anti-M13 phage-HRP-conjugated secondary antibody (GE Healthcare) in PBST was used for detection of phage binding. 100 μL/well of the secondary dilution was added and the plate was incubated at 25° C. for 30 minutes with shaking. The plate was then washed 12 times with PBST using a plate washer and twice with PBS manually. Bound secondary antibody was detected using a TMB substrate (KPL) followed by quenching with an equal volume of 1 M phosphoric acid.

Binder	IC50
B9	12 nM and 9 nM and 13 nM
B10	17 nM
B11	12 nM
B12	14 nM
B13	23 nM
B14	13 nM
B15	24 nM
B16	23 nM and 16 nM and 19 nM
B17	26 nM
B18	44 nM and 33 nM and 26 nM
B19	31 nM
B20	20 nM

These binders were tested against T3, monoubiquitin (Boston Biochem) (human, UniProt P0CG48 1-76) (assay: phage specificity ELISA, 1 ug/mL coated antigen, anti-M13-HRP).
T3 construct: Bought product
Method: (§2) The panel of ubiquitin proteins was immobilized on 96-well Maxisorb immunoplates (NUNC) (see FIGS. 7A and 7B). Plates were coated at 4° C. overnight with 1 μg/mL of each protein in 50 mM sodium carbonate buffer, pH 9.6. The coated plates were blocked with 200 μL/well of 2.5% milk in PBST for one hour at 25° C. with shaking. Six two-fold serial dilutions of phage from OD₂₆₈=1.0 to OD₂₆₈=0.03 were made in 2.5% milk in PBST. After one hour, the blocking buffer was dumped off of the plate and 100 μL of the phage serial dilutions was added. Plates were incubated at 25° C. for one hour with shaking. The plate was then washed six times with PBST using a plate washer. A 1:5,000 dilution of an anti-M13 horseradish peroxidase (HRP)-conjugated secondary antibody (GE Healthcare) in PBST was used for detection of phage binding. […] The plate was then washed six times with PBST using a plate washer and twice manually with PBS. Bound secondary antibody was detected using a TMB substrate (KPL) followed by quenching with an equal volume of 1 M phosphoric acid. The absorbance was read at 450 nm.

Binder	binding result
B9	no binding (tested: phage OD268 1)
B10	no binding (tested: phage OD268 1)
B16	no binding (tested: phage OD268 1)
B18	no binding (tested: phage OD268 1)
B20	no binding (tested: phage OD268 1)

What follows are binders tested against T4, K11-linked diubiquitin (Genentech) (human, UniProt P0CG48 1-76, isopeptide bond between the C-terminus of one ubiquitin and Lys11 of the other) in the same assay as above.
T4 construct: also called K11 diUb
Method: as §2

Binder	binding result
B9	no binding (tested: phage OD268 1)
B10	no binding (tested: phage OD268 1)
B16	no binding (tested: phage OD268 1)
B18	no binding (tested: phage OD268 1)
B20	no binding (tested: phage OD268 1)

What follows are binders tested against T5, K48-linked diubiquitin (Boston Biochem) (human, UniProt P0CG48 1-76, isopeptide bond between the C-terminus of one ubiquitin and Lys48 of the other) in the same assay as above.
T5 construct: Bought product; also called K48 diUb
Method: as §2

Binder	binding result
B9	no binding (tested: phage OD268 1)
B10	no binding (tested: phage OD268 1)
B16	no binding (tested: phage OD268 1)
B18	no binding (tested: phage OD268 1)
B20	no binding (tested: phage OD268 1)

Each binder was assayed against T2, linear diubiquitin (Boston Biochem) (assay: western blot, 1 ug/mL IgG, LI-COR Odyssey quantification; Ub2 bands seen at 333 (faint) and 1000 ng).
Method: as §1

Binder	signal of the Ub2 band at 1000 ng linear diUb (number under the arrow)
B21	8.7
B22	13.1
B5	10.8
B6	10.4

Each binder was assayed against T2, linear diubiquitin (Boston Biochem) (assay: western blot, 1 ug/mL IgG, LI-COR Odyssey quantification; Ub2 bands seen at 111 (faint), 333 and 1000 ng).
Method: as §1

Binder	signal of the Ub2 band at 1000 ng linear diUb (number under the arrow)
B3	16.7
B4	13.1
B7	16.4

Target: T2, linear diubiquitin (Boston Biochem)
Assay: as above
Remark: another data set of the same source

Binder	signal of the Ub2 band at 1000 ng linear diUb (number under the arrow)
B23	5.3
B24	5.4
